Test results published in patent publication US20250076311A1 (Chugai, published 2025).

T1: cynomolgus monkey FcγRIIa1 extracellular domain with C-terminal His-tag (cynomolgus monkey)
T1 construct: also called cyno FcgRIIa1; cynoFcγRIIa1; not shown: His-tag added to the C-terminus
T1 chain: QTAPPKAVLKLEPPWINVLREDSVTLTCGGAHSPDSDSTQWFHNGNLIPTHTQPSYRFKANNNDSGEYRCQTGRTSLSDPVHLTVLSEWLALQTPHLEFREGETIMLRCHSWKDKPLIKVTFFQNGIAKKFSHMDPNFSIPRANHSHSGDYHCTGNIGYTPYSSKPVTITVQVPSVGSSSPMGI

T2: human FcγRIIaH extracellular domain with C-terminal His-tag (human, UniProt P12318 34-217)
T2 construct: also called human FcgRIIaH; FcγRIIa type H; not shown: His-tag added to the C-terminus
T2 sequence: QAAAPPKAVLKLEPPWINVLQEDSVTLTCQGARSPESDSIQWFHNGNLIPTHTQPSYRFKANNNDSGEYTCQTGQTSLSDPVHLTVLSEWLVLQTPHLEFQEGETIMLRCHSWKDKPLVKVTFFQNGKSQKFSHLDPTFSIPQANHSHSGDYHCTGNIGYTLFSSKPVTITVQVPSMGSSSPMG

T3: cynomolgus monkey FcγRIIa3 extracellular domain with C-terminal His-tag (cynomolgus monkey)
T3 construct: also called cyno FcgRIIa3; cynoFcγRIIa3; not shown: His-tag added to the C-terminus
T3 chain: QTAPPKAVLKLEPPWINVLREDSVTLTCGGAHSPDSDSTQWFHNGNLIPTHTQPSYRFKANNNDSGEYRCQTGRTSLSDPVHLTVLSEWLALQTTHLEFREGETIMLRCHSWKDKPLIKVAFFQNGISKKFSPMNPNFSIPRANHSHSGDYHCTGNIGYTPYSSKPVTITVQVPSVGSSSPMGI

T4: human FcγRIIb extracellular domain with C-terminal His-tag (human, UniProt P31994 43-217)
T4 construct: also called human FcgRIIb; not shown: His-tag added to the C-terminus
T4 sequence: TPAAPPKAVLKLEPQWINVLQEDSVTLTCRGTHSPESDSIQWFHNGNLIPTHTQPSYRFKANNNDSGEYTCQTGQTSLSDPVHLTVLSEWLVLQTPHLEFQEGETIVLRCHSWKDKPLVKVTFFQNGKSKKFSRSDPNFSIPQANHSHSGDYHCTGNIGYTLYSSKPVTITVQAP

T5: human FcγRIIaR extracellular domain with C-terminal His-tag (human, UniProt P12318 34-217)
T5 construct: also called human FcgRIIaR; FcγRIIa type R; not shown: His-tag added to the C-terminus
T5 chain: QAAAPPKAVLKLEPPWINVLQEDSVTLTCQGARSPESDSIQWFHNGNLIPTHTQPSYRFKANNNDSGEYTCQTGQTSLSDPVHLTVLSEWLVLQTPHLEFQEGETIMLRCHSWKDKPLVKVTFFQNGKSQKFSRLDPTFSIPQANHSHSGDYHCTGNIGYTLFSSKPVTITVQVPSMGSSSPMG

T6: cynomolgus monkey FcγRIIa3 extracellular domain with C-terminal His-tag (cynomolgus monkey)
T6 construct: also called cyno FcγRIIa3; FcgRIIa3
T6 chain: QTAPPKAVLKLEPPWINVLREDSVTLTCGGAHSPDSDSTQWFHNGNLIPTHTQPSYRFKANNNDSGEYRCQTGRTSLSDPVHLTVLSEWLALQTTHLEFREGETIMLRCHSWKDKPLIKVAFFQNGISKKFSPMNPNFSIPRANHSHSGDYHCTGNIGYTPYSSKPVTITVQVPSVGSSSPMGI

B1: M103205H795-MY105/M103202L889-SK1 (antibody, human IgG1, kappa, name in EU numbering)
heavy: QVTLKESGPVLVKPTETLTLTCTVSGIDLSHDDISWVRQAPGKGLEWVGIISYAGSTYYASWAKGRLTISKDTSKNQVVLTMTNMDPVDTATYYCARGVPAYSHGGDLWGQGTLVTVSSASTKGPSVFPLAPSSKSTSGGTAALGCLVKDYFPEPVTVSWNSGALTSGVHTFPAVLQSSGLYSLSSVVTVPSSSLGTQTYICNVNHKPSNTKVDKKVEPKSCDKTHTCPPCPAPELLNGPVVFLFPPKPKDTLMISRTPEVTCVVVDVSEEDPEVKFNWYVDGVEVHNAKTKPREEQYNSTYRVVSVLTVLHQDWLNGKEYKCKVSNKALPAPIEKTISKAKGQPREPQVYTLPPSREEMTKNQVSLTCLVKGFYPSDIAVEWESNGQPENNYKTTPMVLDSDGSFFLYSKLTVDKSRWQQGNVFSCSVMHEALHNHYTQKSLSLSP
light: DIVMTQSPATLSLSPGERATLSCTSSQSVYHANWLSWFQQKPGQPPKLLIYWASTLAYGVPSRFSGSGSGTDFTLTISSLQPEDAATYYCAGGYGGGRYAFGQGTKVEIKRTVAAPSVFIFPPSDEQLKSGTASVVCLLNNFYPREAKVQWKVDNALQSGNSQESVTEQDSKDSTYSLSSTLTLSKADYEKHKVYACEVTHQGLSSPVTKSFNRGEC
notes: Fc variant of MS1032LO06-SG1; positions in EU numbering
B2: M103205H795-MY199/M103202L889-SK1 (antibody, human IgG1, kappa, name in EU numbering)
heavy: QVTLKESGPVLVKPTETLTLTCTVSGIDLSHDDISWVRQAPGKGLEWVGIISYAGSTYYASWAKGRLTISKDTSKNQVVLTMTNMDPVDTATYYCARGVPAYSHGGDLWGQGTLVTVSSASTKGPSVFPLAPSSKSTSGGTAALGCLVKDYFPEPVTVSWNSGALTSGVHTFPAVLQSSGLYSLSSVVTVPSSSLGTQTYICNVNHKPSNTKVDKKVEPKSCDKTHTCPPCPAPELLNGPSVFLFPPKPKDTLMISRTPEVTCVVVDVSEEDPEVKFNWYVDGVEVHNAKTKPREEQYNSTYRVVSVLTVLHQDWLNGKEYKCKVSNKALPKPIEKTISKAKGQPREPQVYTLPPSREEMTKNQVSLTCLVKGFYPSDIAVEWESNGQPENNYKTTPPVLDSDGSFFLYSKLTVDKSRWQQGNVFSCSVMHEALHNHYTQKSLSLSP
light: DIVMTQSPATLSLSPGERATLSCTSSQSVYHANWLSWFQQKPGQPPKLLIYWASTLAYGVPSRFSGSGSGTDFTLTISSLQPEDAATYYCAGGYGGGRYAFGQGTKVEIKRTVAAPSVFIFPPSDEQLKSGTASVVCLLNNFYPREAKVQWKVDNALQSGNSQESVTEQDSKDSTYSLSSTLTLSKADYEKHKVYACEVTHQGLSSPVTKSFNRGEC
notes: as for B1
B3: M103205H795-MY206/M103202L889-SK1 (antibody, human IgG1, kappa, name in EU numbering)
heavy: QVTLKESGPVLVKPTETLTLTCTVSGIDLSHDDISWVRQAPGKGLEWVGIISYAGSTYYASWAKGRLTISKDTSKNQVVLTMTNMDPVDTATYYCARGVPAYSHGGDLWGQGTLVTVSSASTKGPSVFPLAPSSKSTSGGTAALGCLVKDYFPEPVTVSWNSGALTSGVHTFPAVLQSSGLYSLSSVVTVPSSSLGTQTYICNVNHKPSNTKVDKKVEPKSCDKTHTCPPCPAPELLNGPVVFLFPPKPKDTLMISRTPEVTCVVVDVSDEDPEVKFNWYVDGVEVHNAKTKPREELYNSTYRVVSVLTVLHQDWLNGKEYKCKVSNKALPKPIEKTISKAKGQPREPQVYTLPPSREEMTKNQVSLTCLVKGFYPSDIAVEWESNGQPENNYKTTPPVLDSDGSFFLYSKLTVDKSRWQQGNVFSCSVMHEALHNHYTQKSLSLSP
light: DIVMTQSPATLSLSPGERATLSCTSSQSVYHANWLSWFQQKPGQPPKLLIYWASTLAYGVPSRFSGSGSGTDFTLTISSLQPEDAATYYCAGGYGGGRYAFGQGTKVEIKRTVAAPSVFIFPPSDEQLKSGTASVVCLLNNFYPREAKVQWKVDNALQSGNSQESVTEQDSKDSTYSLSSTLTLSKADYEKHKVYACEVTHQGLSSPVTKSFNRGEC
notes: as for B1
B4: M103205H795-MY289/M103202L889-SK1 (antibody, human IgG1, kappa, name in EU numbering)
heavy: QVTLKESGPVLVKPTETLTLTCTVSGIDLSHDDISWVRQAPGKGLEWVGIISYAGSTYYASWAKGRLTISKDTSKNQVVLTMTNMDPVDTATYYCARGVPAYSHGGDLWGQGTLVTVSSASTKGPSVFPLAPSSKSTSGGTAALGCLVKDYFPEPVTVSWNSGALTSGVHTFPAVLQSSGLYSLSSVVTVPSSSLGTQTYICNVNHKPSNTKVDKKVEPKSCDKTHTCPPCPAPELLNGPSVFLFPPKPKDTLMISRTPEVTCVVVDVSHEDPEVKFNWYVDGVEVHNAKTKPREEQYNSTYRVVSVLTVLHQDWLNGKEYKCKVSNKALPKPIEKTISKAKGQPREPQVYTLPPSREEMTKNQVSLTCLVKGFYPSDIAVEWESNGQPENNYKTTPMVLDSDGSFFLYSKLTVDKSRWQQGNVFSCSVMHEALHNHYTQKSLSLSP
light: DIVMTQSPATLSLSPGERATLSCTSSQSVYHANWLSWFQQKPGQPPKLLIYWASTLAYGVPSRFSGSGSGTDFTLTISSLQPEDAATYYCAGGYGGGRYAFGQGTKVEIKRTVAAPSVFIFPPSDEQLKSGTASVVCLLNNFYPREAKVQWKVDNALQSGNSQESVTEQDSKDSTYSLSSTLTLSKADYEKHKVYACEVTHQGLSSPVTKSFNRGEC
notes: as for B1
B5: M103205H795-MY321 (heavy chain) with M103202L889-SK1 (light chain) (antibody, human IgG1, kappa, name in EU numbering)
heavy: QVTLKESGPVLVKPTETLTLTCTVSGIDLSHDDISWVRQAPGKGLEWVGIISYAGSTYYASWAKGRLTISKDTSKNQVVLTMTNMDPVDTATYYCARGVPAYSHGGDLWGQGTLVTVSSASTKGPSVFPLAPSSKSTSGGTAALGCLVKDYFPEPVTVSWNSGALTSGVHTFPAVLQSSGLYSLSSVVTVPSSSLGTQTYICNVNHKPSNTKVDKKVEPKSCDKTHTCPPCPAPELLHGPSVFLFPPKPKDTLMISRTPEVTCVVVDVSDEDPEVKFNWYVDGVEVHNAKTKPREEQYNSTYRVVSVLTVLHQDWLNGKEYKCKVSNKALPKPIEKTISKAKGQPREPQVYTLPPSREEMTKNQVSLTCLVKGFYPSDIAVEWESNGQPENNYKTTPMVLDSDGSFFLYSKLTVDKSRWQQGNVFSCSVMHEALHNHYTQKSLSLSP
light: DIVMTQSPATLSLSPGERATLSCTSSQSVYHANWLSWFQQKPGQPPKLLIYWASTLAYGVPSRFSGSGSGTDFTLTISSLQPEDAATYYCAGGYGGGRYAFGQGTKVEIKRTVAAPSVFIFPPSDEQLKSGTASVVCLLNNFYPREAKVQWKVDNALQSGNSQESVTEQDSKDSTYSLSSTLTLSKADYEKHKVYACEVTHQGLSSPVTKSFNRGEC
notes: Substitutions introduced into M103205H795-SG1; positions in EU numbering

Assays:
[1] = target: T7, cynomolgus monkey FcγRIIIaS extracellular domain with C-terminal His-tag (cynomolgus monkey, UniProt A3RFZ7 21-206 (rhesus entry)); experiment: SPR (BIACORE); KD of SG1 / KD of variant
T7 construct: also called cyno FcgRIIIaS; cynoFcγRIIIaS; not shown: His-tag added to the C-terminus
T7 sequence (A3RFZ7 21-206): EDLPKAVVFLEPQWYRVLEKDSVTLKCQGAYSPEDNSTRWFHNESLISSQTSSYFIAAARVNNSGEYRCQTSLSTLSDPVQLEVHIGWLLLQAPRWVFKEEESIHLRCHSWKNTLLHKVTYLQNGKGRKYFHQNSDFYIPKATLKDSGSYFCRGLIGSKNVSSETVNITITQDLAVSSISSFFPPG

[2] = target: T1, cynomolgus monkey FcγRIIa1 …; experiment: SPR (BIACORE), antibody captured, FcgR analyte
[3] = target: T2, human FcγRIIaH extracellular domain …; experiment: SPR (BIACORE), antibody captured, FcgR analyte
[4] = target: T7, cynomolgus monkey FcγRIIIaS …; experiment: SPR (BIACORE), antibody captured, FcgR analyte
[5] = target: T3, cynomolgus monkey FcγRIIa3 …; experiment: SPR (BIACORE), antibody captured, FcgR analyte
[6] = target: T8, human FcγRIIIaV extracellular domain with C-terminal His-tag (human, UniProt P08637 17-208); experiment: SPR (BIACORE), antibody captured, FcgR analyte
T8 construct: also called human FcgRIIIaV; not shown: His-tag added to the C-terminus
T8 sequence (P08637 17-208 F176V): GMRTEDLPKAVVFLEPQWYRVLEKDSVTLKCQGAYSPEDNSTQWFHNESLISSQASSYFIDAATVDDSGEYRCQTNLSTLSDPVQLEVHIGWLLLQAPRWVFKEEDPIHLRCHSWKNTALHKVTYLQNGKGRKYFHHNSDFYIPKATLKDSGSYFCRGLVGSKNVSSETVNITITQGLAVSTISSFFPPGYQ

[7] = target: T4, human FcγRIIb extracellular domain with …; experiment: SPR (BIACORE), antibody captured, FcgR analyte
[8] = target: T5, human FcγRIIaR extracellular domain …; experiment: SPR (BIACORE), antibody captured, FcgR analyte
[9] = target: T6, cynomolgus monkey FcγRIIa3 …; experiment: SPR; KD of SG1 / KD of variant
Experimental: The kinetic analysis of interactions between these antibodies and FcγR was carried out using BIACORE® T200 or BIACORE® 4000 (GE Healthcare). HBS-EP+ (GE Healthcare) was used as the running buffer, and the measurement temperature was set to 25° C. […] After the measurement, the antibody captured on the chip was washed off by allowing reaction with 10 mM glycine-HCl, pH1.5 and 25 mM NaOH so that the chip was regenerated and used repeatedly. The sensorgrams obtained as measurement results were analyzed by the 1:1 Langmuir binding model using the BIACORE® Evaluation Software to calculate the binding rate constant ka (L/mol/s) and dissociation rate constant kd (1/s), and the dissociation constant KD (mol/L) was calculated from these values. […] Regarding such interactions, KD values were calculated using the following 1:1 binding model described in BIACORE® T100 Software Handbook BR1006-48 Edition AE.

| Binder | KD fold (SG1 = 1) [1] | Kd [2] | Kd [3] | Kd [4] | Kd [5] | Kd [6] | Kd [7] | Kd [8] | KD fold (SG1 = 1) [9] |
| --- | --- | --- | --- | --- | --- | --- | --- | --- | --- |
| B1 | 0.28 fold | 1.2 µM | 1.5 µM | 1.3 µM | 1.5 µM | – | – | – | – |
| B2 | – | 1.9 µM | 1.1 µM | 0.041 µM | – | 13 µM | – | – | – |
| B3 | – | 0.81 µM | – | 3.5 µM | 3 µM | – | 0.9 µM | – | – |
| B4 | – | 1.5 µM | – | 5.2 µM | 8.6 µM | – | – | 3.5 µM | – |
| B5 | – | – | – | – | – | – | – | – | 5.9 fold |
